The results in this text go back to the supplement of paper PMC12042874.

± gives the uncertainty stated by the source.

A short description of the series: amyloid nucleation score (Sup35N fusion, yeast selection) (log enrichment); library NNK3; higher = more nucleation; inactive = no reads after selection. In outline: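 Output and input plasmid inserts were sequenced by Illumina after psi-negative yeast carrying Sup35N fused to peptides of 20 random codons had been induced 24 hours with 100 μM copper sulfate and grown 7 days at 30°C on medium lacking adenine and uracil. The nucleation score is the DiMSum log enrichment of output over input reads, centred on the mode score of non-aggregating sequences. Sequences with under 100 input reads were excluded.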
As for SHYRDK, the amyloid nucleation score result is “inactive”. Regarding INWLWFLMHIIQI, the amyloid nucleation score entry is “inactive”. The entry for FRWHLCRFCWKRIFASTMLA is “inactive”; for MRRVGIWYVRR it is “inactive”; for MKFFVNLAYIFFRFFSLRLL it is “inactive”.

For the substance RHQHKRGAV, the amyloid nucleation score was -0.982 ± 1.4. The entry for KFNGCR is “inactive”; for SVSEFSFGSKCIVRRLGI it is “inactive”. The entry for LRCVGGSGSEGLVLSRMVTG is “inactive”; for YQFDFTF it is “inactive”.

FRNCRSWATCTAKARLHCPS displayed an amyloid nucleation score of 0.812 ± 0.16. The entry for RMVDFADF is “inactive”; for VNRFVDTVGKGRITIIGCEH it is “inactive”. The entry for SYNVFPIAEDKNHWNTFC is “inactive”.

Turning to NVSPIGQISVNYGRMDCSEG, the amyloid nucleation score entry was “inactive”. The entry for TQGFLNKAGNVLSVIMDRIR is “inactive”. Substance RVCCVGYLSNLLTMKGTGID returned an amyloid nucleation score of 1.81 ± 0.059.

On to SNIRYRNFRSGFFIQWLHTG, for which the amyloid nucleation score entry is “inactive”. The figure for ATRASPMSGTYSCTFKIIFL is 2.94 ± 0.082. The entry for VLSMRHSNTGMARCTDW is “inactive”. The entry for MGQAEGFLNGSSEQVEPTFA is “inactive”. For the substance VECHPCSHFDLHNGRIRDNR, the amyloid nucleation score entry was “inactive”. The entry for VSCRQLYQSIGGRKPDRRFI is “inactive”. In the case of VAMRDERGLFNRLWLRVFV, the amyloid nucleation score result is “inactive”. The entry for IYIRRVRISVEATLRHCCVI is “inactive”; for FSSIMSFVVYSRKLLEVTSP it is “inactive”. In the case of SKTHRSVFMMAVIELKPTNS, the amyloid nucleation score result is “inactive”. The entry for SYNHEKLK is “inactive”. The entry for NTGYVVLHKDFHSLASSTKV is “inactive”.

YSQLCFF: the amyloid nucleation score entry was “inactive”. ERSITGYNPPRRV: the amyloid nucleation score was -0.561 ± 0.82. Turning to MSGSRWRSTNFTCNNLWFDR, the amyloid nucleation score is -1.07 ± 1.1. Regarding IYWLSDN, the amyloid nucleation score entry is “inactive”. The entry for PGWLPQGMDNNSLTAVCVTI is “inactive”; for PRRTNRVNKSISSVLSLRIG it is 0.517 ± 0.57.

For IMTLFTILVTLMTMCLDQFV, the amyloid nucleation score entry was “inactive”. The entry for VCLCNQVRLTM is “inactive”. As to FTNISVNNAVFVFVVCTAV, the amyloid nucleation score is 2.52 ± 0.054. The entry for TSQTLESQDLIFSGCHSGWL is “inactive”; for VGLISGVCDDGSGSMSSRLW it is “inactive”; for VSATSQYQSICLSLNTKNRF it is “inactive”. The entry for FDLLRSNYYSFRCVCEVIDR is “inactive”.

Regarding LWLFIAY, the amyloid nucleation score result was “inactive”. As for FYRFFDSV, the amyloid nucleation score result was “inactive”.

Take GVDLDLLICGYMLWMDYCSG: the amyloid nucleation score result is “inactive”. Take MWSHFFSQYSGWRFYTKSRF: the amyloid nucleation score entry was “inactive”. For SMFGLRLIDG, the amyloid nucleation score entry was “inactive”. The entry for PELLEHYMSHF is “inactive”; for VYKWRAYIEHSNFWAIKPVC it is “inactive”. The entry for LKSDI is “inactive”. The figure for IAGCMGNCGLCRAMVICWMN is -0.409 ± 0.7; for RTWDYVLLGLLLLDYYRILA it is “inactive”; for RMFNDSLNRV it is “inactive”. As to VFTFAWMLNRVISNYHPTIP, the amyloid nucleation score entry is “inactive”. The entry for PWRLIAALACVYTWPLGLRG is “inactive”; for TVKMRKFRRGTFRDMDIYWR it is “inactive”. As for SILDCLLKMGFNTILHACWN, the amyloid nucleation score result is “inactive”. The entry for IFLAGDMC is “inactive”; for SCECSSNMGEAFRKLVGTSA it is “inactive”. For VFLQRCVDYMCDRNCFSVFA, the amyloid nucleation score result is “inactive”. The entry for NVFLRNLA is “inactive”; for IMYPIRSSGLEPLNMCGYQA it is “inactive”. The entry for SKGSWHVFNKGSEWVKYFGM is “inactive”; for YGVYISIFILCWNGGNNDDC it is “inactive”. For SFNMDYHMWIEQGSRWVFTT, the amyloid nucleation score result is “inactive”. As for SQACNHLVADRSTIGELSRM, the amyloid nucleation score result is “inactive”.

As for ASWKLITCQNSAFR, the amyloid nucleation score entry is “inactive”. For the substance LSNGDAKTSRTASVRCLRYA, the amyloid nucleation score result was “inactive”. The entry for HEGPKKEGLLAYVKVKRLRR is “inactive”; for RNMEPDASVATV it is “inactive”. The entry for FRDVPGLLCR is “inactive”; for ILASKALQQLLQGLTLV it is -0.375 ± 0.98. Consider HCVMNNVAWVLRYTDRRDAL, for which the amyloid nucleation score was determined as 1.2 ± 0.091. The figure for GFYLVVKTINGFPNNLKWMA is 0.296 ± 0.21; for VDWNRTFEIKSVEGDVKGAL it is “inactive”; for VMGMDIIRIPS it is “inactive”. The entry for RYYSDNDYAMQLLLEHTALY is “inactive”; for ALWFIHYGAG it is 0.98 ± 0.24. The entry for YVSDD is “inactive”. With DRTHDSSDSCGCCNNL, the amyloid nucleation score entry is “inactive”.

Regarding YVDCYRFAVMQEFPCQYRGD, the amyloid nucleation score result was “inactive”.

SKIGILWCLMSEECYLFQFR: the amyloid nucleation score entry is “inactive”.

ISYVYFLGPCV gave an amyloid nucleation score of 2.13 ± 0.08. The entry for NSTDRMTASS is “inactive”; for IFFVTVYQTNHHKSTLRCTN it is 2.33 ± 0.087. The entry for LLDCFKLYSSHLAEGRTTVT is “inactive”. The figure for NWCLVYRPVKL is 1.54 ± 0.1; for VFDPGLSNCWRVTGWNED it is “inactive”; for YRNELCYIQRRYLPYGRWTA it is “inactive”.

As for RDVFINPTTGQALNVWACCR, the amyloid nucleation score result is “inactive”. As for PAYLHYSIFWQNVFSNVLIM, the amyloid nucleation score was 1.1 ± 0.14. The entry for MRYGKLDLSRVYLQCDRLGR is “inactive”; for VHSFLKYGGNSAIGLLPEDS it is “inactive”. On to PLTPD, for which the amyloid nucleation score result was “inactive”. The entry for MMVIRQYFMVRVEPVHVSSG is “inactive”. In the case of WIVVDKSNQCGLGYVLWYNF, the amyloid nucleation score result is “inactive”. The entry for KVVRVIVSEGNRVIKFTTMP is “inactive”; for KREPKS it is “inactive”; for TTSLSIGGLIFRLVL it is “inactive”.

In turn, TICQADSRSSFQGLDCRRVR yielded an amyloid nucleation score of -1.01 ± 2.5. The entry for WSLSYHRKMIFGDTCVTYIG is “inactive”; for LRDFRKVSPAKVIDNRFQTD it is 0.827 ± 0.17; for MGIQKTDRWRLWYYYWMREN it is “inactive”. The entry for DQQCDDVWRRWDGYGRRKKR is “inactive”. With YSGSNITTHNVFNETGDWSG, the amyloid nucleation score entry is “inactive”. The entry for SPVHLCMDLGSS is “inactive”; for FLWVAANLDFVYDEREHIRG it is “inactive”; for GCLRDPTVAQVDYLGYGVRL it is “inactive”. On to NARGVKSDEILN, for which the amyloid nucleation score result was “inactive”.

Turning to FLLMC, the amyloid nucleation score result was “inactive”. The figure for FKDCED is -0.328 ± 0.6; for VTCETSGADVVSTR it is “inactive”; for NGGVLAGTMG it is “inactive”. The entry for HHHRLARTPHDIVPRQKLVV is “inactive”. For the substance LNLVVRHFPTNR, the amyloid nucleation score result was “inactive”. The figure for CVYGPRFNF is 1.94 ± 0.067. The entry for FSSMVNVYSLLKVFF is “inactive”; for GWNILLNLNIEYSTLYIVNL it is 2.44 ± 0.06. Turning to VMDLLK, the amyloid nucleation score entry was “inactive”. The entry for NSYQY is “inactive”; for LFTLTWSWQLKGFFYYHGYV it is “inactive”. The figure for FHMFYRFSGDNGPKKFH is 0.607 ± 0.26; for RKWSNR it is “inactive”; for NYGLLQFISIWSNILVHSNV it is “inactive”.

As to NFMGVYLVWNFIVVFKVHYV, the amyloid nucleation score result is “inactive”.

Take IHCSSWFELS: the amyloid nucleation score entry is “inactive”. The figure for NFRPEKHINLMVCKSLPFV is 0.705 ± 0.21; for NEVMGFFNDQWRMIWWGYPR it is “inactive”.

Take IMCIYEGAVSMYMRVWSNMS: the amyloid nucleation score result was “inactive”. As for VWCRQITMMACMSVR, the amyloid nucleation score entry was “inactive”. For STRAVQIRKSRGFAGYPGN, the amyloid nucleation score result is “inactive”. The figure for VLCNYGCGIDFAV is 0.181 ± 0.53.
